# From article PMC4529466, “Intradermal insulin infusion achieves faster insulin action than subcutaneous infusion for 3-day wear” (Drug Delivery and Translational Research, 2015)
# Assay: Postprandial serum insulin aspart pharmacokinetics after meal bolus, 3-day ID vs SC infusion
# Type: in vivo, human (T1DM patients)
# Settings: for ΔAUCIns0−1: 0–1 h; for ΔAUCIns0−1 / ΔAUCIns0–1.5 / ΔAUCIns0–2 / ΔAUCIns0–4 / T50_max_falling / T50_max_rising / Tmax / ΔCmax: mean ± SD; for ΔAUCIns0–1.5: 0–1.5 h; for ΔAUCIns0–2: 0–2 h; for ΔAUCIns0–4: 0–4 h; for Intra-subject variability of Tmax: across all study days and breakfast and lunch meals
# Excerpt: This was a single center, open-label, two-period crossover study, randomized by infusion order, in T1DM patients on continuous subcutaneous insulin infusion (CSII). The protocol was approved by an independent ethics committee (Ethikkommission der Ärztekammer Nordrhein, Düsseldorf, Germany), appropriate regulatory bodies (German Federal Institute for Drugs and Medical Devices (BfArM)), and conducted in compliance with good clinical practice (GCP), the Declaration of Helsinki, and applicable regulatory requirements.
# The study was completed over a multi-week period consisting of three study visits: a screening visit (V1) and two interventional visits (V2 and V3). After establishing eligibility and enrollment, patients received treatment during two interventional visits: one SC and one ID basal/bolus infusion of insulin aspart (NovoRapid® U-100, Novo Nordisk, Copenhagen, Denmark) administered over 3 days in a randomized order.
# For each dosing visit, patients arrived the evening prior to the first standardized meal to verify compliance with protocol criteria. An intravenous catheter was inserted into a peripheral vein of the arm for manual blood sampling. Infusion sets, ID (34 G × 1.5 mm length stainless steel microneedle catheter set, BD Technologies, Research Triangle Park, NC) or SC (25 G × 6 mm length soft cannula, Quick-Set, Medtronic Minimed, Northridge, CA), were connected to an insulin infusion pump (Animas® Vibe™, Animas Corporation, West Chester, PA) and primed according to the manufacturer’s instructions. Sets were placed into the patient’s abdomen (periumbilical, left or right) using a customized applicator for the ID set, or the manufacturer recommended inserter for the SC set (customized Sof-serter® and Quick-serter® respectively, both Medtronic Minimed, Northridge, CA). Due to the small adhesive surface on the microneedle catheter, a modified IV dressing (IV3000 1-Hand, Smith & Nephew, England) was used for additional securement over the catheter. A safety loop was used on all catheter lines as recommended by general insulin pump user guidance (Fig. 1c). The respective infusion sets provided all basal and bolus insulin delivery of insulin aspart for the duration of each 72-h study period. A fluid pressure transducer (BD-DTX™ Plus, Becton Dickinson, Franklin Lakes, NJ) was connected in-line between the pump reservoir and each infusion set to monitor infusion delivery pressure, with automated data capture via a commercial data logging system (LORD MicroStrain®, Williston, VT) to provide a secondary post hoc measure of delivery status. The pump/pressure monitoring system combination was contained in a waist pack for the duration of delivery due to its potentially cumbersome size.
# After maintaining targeted blood glucose range during the preceding night, bolus insulin doses were administered via the respective infusion catheter prior to standardized breakfast and lunch test meals on each of the three treatment days. Each meal insulin bolus was calculated based on the patient’s insulin sensitivity and previous hours change in BG per sliding scale then delivered immediately prior to breakfast (t = 0 min) and lunch (t = 360 min) consumption. Breakfast was a high glycemic index (60 g carbohydrates) solid meal, and lunch was a mixed meal based on the individual’s calculated daily energy intake and equivalent in caloric composition by day. Breakfast and lunch meals were consumed within 15 min followed by serial blood sampling with BG monitoring for a period of 6 and 4 h, respectively. Patients were asked to remain sedentary for 2 h after meals. Identical study procedures were utilized for the remaining dosing visit days (Fig. 2).
# To assess insulin absorption kinetics and glycemic response, blood samples for measurements of insulin aspart and blood glucose in serum were drawn at predefined time points throughout dosing visits. Serial samples for safety BG determination, but not PK analysis, were obtained at a minimum every 2 h. […]
# [1] = ID infusion, Day 1, across meals
# [2] = ID infusion, Day 2, across meals
# [3] = ID infusion, Day 3, across meals
# [4] = ID infusion, Days 1–3 combined, across meals, n = 141–156
# [5] = SC infusion, Day 1, across meals
# [6] = SC infusion, Day 2, across meals
# [7] = SC infusion, Day 3, across meals
# [8] = SC infusion, Days 1–3 combined, across meals, n = 141–156
substance,measurement,setting,value
insulin aspart,reduction of Tmax compared to the respective SC delivery,ID bolus vs SC,greater than 40%
same,"decrease of T50_max_falling, ID vs SC","ID bolus vs SC, p < 0.0001",~25%
same,"decrease of T50_max_rising, ID vs SC","ID bolus vs SC, p < 0.0001",~ 50%
same,ΔAUCIns0−1,[1],39.5 ± 31.4 mU*h/L
same,ΔAUCIns0−1,[2],43.7 ± 36 mU*h/L
same,ΔAUCIns0−1,[3],44.8 ± 37.4 mU*h/L
same,ΔAUCIns0−1,[4],42.5 ± 34.7 mU*h/L
same,ΔAUCIns0–1.5,[1],56.6 ± 46.4 mU*h/L
same,ΔAUCIns0–1.5,[2],61.6 ± 54.0 mU*h/L
same,ΔAUCIns0–1.5,[3],62.8 ± 55.6 mU*h/L
same,ΔAUCIns0–1.5,[4],60.2 ± 51.6 mU*h/L
same,ΔAUCIns0–2,[1],68.5 ± 59.0 mU*h/L
same,ΔAUCIns0–2,[2],74.0 ± 67.8 mU*h/L
same,ΔAUCIns0–2,[3],75.7 ± 71.2 mU*h/L
same,ΔAUCIns0–2,[4],72.5 ± 65.5 mU*h/L
same,ΔAUCIns0–4,[1],86.9 ± 85.8 mU*h/L
same,ΔAUCIns0–4,[2],92.3 ± 94.5 mU*h/L
same,ΔAUCIns0–4,[3],94.4 ± 103 mU*h/L
same,ΔAUCIns0–4,[4],91.0 ± 93.5 mU*h/L
same,T50_max_falling,[1],108 ± 39.2 min
same,T50_max_rising,[1],5.7 ± 2.2 min
same,Tmax,[1],27.6 ± 13.9 min
same,ΔCmax,[1],54.5 ± 42.1 mU/L
same,T50_max_falling,[2],106 ± 32.6 min
same,T50_max_rising,[2],5.8 ± 2.6 min
same,Tmax,[2],29.1 ± 13.3 min
same,ΔCmax,[2],58.6 ± 47.0 mU/L
same,T50_max_falling,[3],107 ± 36.7 min
same,T50_max_rising,[3],6.4 ± 2.3 min
same,Tmax,[3],29.1 ± 12.5 min
same,ΔCmax,[3],61.2 ± 51.5 mU/L
same,ΔCmax,"ID infusion, Days 1–3 combined, across meals, baseline corrected, n = 141–156",57.9 ± 46.5 mU/L
same,T50_max_falling,[4],107 ± 36.1 min
same,T50_max_rising,[4],6.0 ± 2.4 min
same,Tmax,[4],28.5 ± 13.2 min
same,Intra-subject variability of Tmax,ID,29.6 %CV
same,intra-subject Tmax variability measured by %CV,"ID, across meals and days",30%
same,ΔAUCIns0−1,[5],29.9 ± 25.3 mU*h/L
same,ΔAUCIns0−1,[6],30.6 ± 21.1 mU*h/L
same,ΔAUCIns0−1,[7],33.6 ± 25.7 mU*h/L
same,ΔAUCIns0−1,[8],31.3 ± 24 mU*h/L
same,ΔAUCIns0–1.5,[5],45.9 ± 38.9 mU*h/L
same,ΔAUCIns0–1.5,[6],48.7 ± 35.9 mU*h/L
same,ΔAUCIns0–1.5,[7],52.8 ± 42.5 mU*h/L
same,ΔAUCIns0–1.5,[8],49.0 ± 39.0 mU*h/L
same,ΔAUCIns0–2,[5],57.8 ± 50.9 mU*h/L
same,ΔAUCIns0–2,[6],62.6 ± 49.6 mU*h/L
same,ΔAUCIns0–2,[7],66.7 ± 57.0 mU*h/L
same,ΔAUCIns0–2,[8],62.2 ± 52.3 mU*h/L
same,ΔAUCIns0–4,[5],77.4 ± 76.2 mU*h/L
same,ΔAUCIns0–4,[6],85.7 ± 82.3 mU*h/L
same,ΔAUCIns0–4,[7],87.7 ± 86.9 mU*h/L
same,ΔAUCIns0–4,[8],83.4 ± 81.3 mU*h/L
same,T50_max_falling,[5],135 ± 51.1 min
same,T50_max_rising,[5],13.2 ± 7.9 min
same,Tmax,[5],46.0 ± 28.4 min
same,ΔCmax,[5],47.4 ± 37.5 mU/L
same,T50_max_falling,[6],143 ± 44.1 min
same,T50_max_rising,[6],12.0 ± 9.5 min
same,Tmax,[6],50.1 ± 19.7 min
same,ΔCmax,[6],47.2 ± 34.8 mU/L
same,T50_max_falling,[7],136 ± 39.5 min
same,T50_max_rising,[7],11.2 ± 5.0 min
same,Tmax,[7],47.1 ± 18.3 min
same,ΔCmax,[7],51.5 ± 40.8 mU/L
same,ΔCmax,"SC infusion, Days 1–3 combined, across meals, baseline corrected, n = 141–156",48.7 ± 37.6 mU/L
same,T50_max_falling,[8],138 ± 45.1 min
same,T50_max_rising,[8],12.2 ± 7.7 min
same,Tmax,[8],47.7 ± 22.8 min
same,Intra-subject variability of Tmax,SC,36.7 %CV
same,intra-subject Tmax variability measured by %CV,"SC, across meals and days",37%
same,"Tmax shortening, ID vs SC",across days,~ 19 min
same,"time reduction of T50%maxfalling, ID vs SC",across days,~31 min
same,"time reduction of T50%maxrising, ID vs SC",across days,~ 6 min
same,"less intra-subject variability (%CV), ID compared to SC",across meals and days,~ 7%
